# The nanobody polyreactivity screen of Harvey et al. (2022)
# Test: yeast display, Sf9 membrane polyspecificity reagent, FACS + sequencing; frameworks hold sequencing errors
# Outline: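 Genes from sorted yeast were amplified by colony PCR, read by MiSeq 2 × 250 sequencing and filtered on CDR length. These cells carried a synthetic nanobody library in Saccharomyces cerevisiae BJ5465 and were sorted by FACS into low and high (top ~1%) gates on anti-HA and streptavidin fluorescence. Polyreactivity is labelled according to the gate of origin.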
row,Sequence,polyreactivity (PSR sort gate)
1,QVQLVESGGGLVQAGGSLRLSCAASGFIFSYNAMRWYRQAPGKERELTYADSVKGRFTISRDNAKNTVYLQMNSLKPEDTAVYFCAAGEYGRQYDGDYWGQATQVTVSS,low polyreactivity
2,QVQLVESGGGLVQAGGSLRLSCAASGFIFSYYAKGWYRQAPGKERELVAAIDGSGGSTYYADSVKGRFTISRDNAKNTVYLQMNSLKPVDTAVYYCNTLIFIQGLGYDYWGQGTQVTVSS,high polyreactivity
3,QVQLVESGGGLVQAGGSLRLSCAASGFIFSYYAMGWYRQAPGKERELVAAISSGGSTYYADSVKGRFTISRDNAKNSVYLQMNSLKPEDTAVYYCAAAIWYIILYFVRRTEHGYWGQGTQVTVSS,low polyreactivity
4,QVQLVESGGGLVQAGGSLRLSCAASGFIFTDNAMGWYRQAPGKESEFVAAITYSGGSTYYADSVKGRFTISRDNAKNTVYLQMNSLKPEDTAVYYCNKDFFPAPVVVTAYEYEYWGQGSQVTVSS,low polyreactivity
5,QVQLVESGGGLVQAGGSLRLSCAASGFIFTGYAMGWYRQAPGKERELVATISRRGGSTYYADSVKGRFTISRDNAKNTVYLQMNSLKPEDTAVYYCAAQRTLYRSGFDSWGQGTQVTVSS,high polyreactivity
6,QVQLVESGGGLVQAGGSLRLSCAASGFIFTIYAMGWYRQAPGKERELVAAISSGGSTTYADSVKGRFTISRDNAKNTVYLQMNSLKPEDTAVYYCNAGVDPFGSLLPFTDQYDYWGQGTQVTVSS,low polyreactivity
7,QVQLVESGGGLVQAGGSLRLSCAASGFIFTNVMGWYRQAPGKERELVAAISGRGTSTYYADSVKGRFTISRDNAKNTVYLQMNSLKPEDTAVYYCAAYFTSRLDYWGQGTQVTVSS,high polyreactivity
8,QVQLVESGGGLVQAGGSLRLSCAASGFIFTPYAMGWYRQAPGKERELVAAIRSGTSTNYADSVKGRFTISRDNAKNTVYLQMNSLKPEDTAVYYCAAEEGLIDGRAWYGYWGQGTQVTVSS,low polyreactivity
9,QVQLVESGGGLVQAGGSLRLSCAASGFIFTPYAMGWYRQAPGKERELVAAITWRGARTYYADSVKGRFTISRDIAKNSVYLQMNSLKPEDTAVYYCAALSRRSYAPRDDYWGQGTQVTVSS,high polyreactivity
10,QVQLVESGGGLVQAGGSLRLSCAASGFIFTPYTMGWYRQAPGKERELVAAITDGSSTYYADSVKGRFTISRDNAKNTVYLQMNSLKPEDTAVYYCAAVPRYQYGYWGQGTQVTVSS,low polyreactivity
11,QVQLVESGGGLVQAGGSLRLSCAASGFIFTQYAMGWYRQAPGKERELVAGITSSGNTYYADSVKGRFTISRDNAKNPVYLQMNSLKPEDTAVYYCAARSASRRMDYWGQGTQVTVSS,high polyreactivity
12,QVQLVESGGGLVQAGGSLRLSCAASGFIFTRNAMGWYRQAPGKERELVAAISASGGRTYYADSVKGRFTISRDNAKNTVYLQMNSLKPEDTAVYYCNTGIYVARSTYGRFKYDYWGQGTQVTVSS,high polyreactivity
13,QVQLVESGGGLVQAGGSLRLSCAASGFIFTRNAMGWYRQAPGKERELVATISRSGSSTSYADSVKGRFTISRDNAKNTVYLQMNRLKPEDTAVYYCAATYIYRHSVISRYDYWGQGTQVTVSS,high polyreactivity
14,QVQLVESGGGLVQAGGSLRLSCAASGFIFTSYARGWYRQAPGKDRELVAAITRSGASTSYADSVKGRFTISRDNAKNTVYLQMNSLKPEDTAVYYCAAKAPLPRYYVPRYDYWGQGTQVTVSS,high polyreactivity
15,QVQLVESGGGLVQAGGSLRLSCAASGFIFTTYAMGWSRQAPGKEWELVAAISTSGGRTYYADSVKGRFTISRDNAKNTVYLQMNSLKPEDTAVYYCNTYSYYSYDWGQGTQVTVSS,high polyreactivity
16,QVQLVESGGGLVQAGGSLRLSCAASGFIFTTYDMGWYRQAPGKEMELVAAITGSGGRTYYADSVKGRFTISRDNAKNTVYLQMNSLKPEDTAVYYCAARWGNVRFRYGYWGQGTQVTVSS,high polyreactivity
17,QVQLVESGGGLVQAGGSLRLSCAASGFIFTWYAMGWYRQAPGKEREFVAAITSRGTSTYYADSVKGRFTISRDNAKNTVYLQMNSLKPEDTAVYYCAARASYTRRHVGRPYDYWGQGTQVTVSS,high polyreactivity
18,QVQLVESGGGLVQAGGSLRLSCAASGFIFTWYAMGWYRQAPGKEREFVAGISRSGGRTYYADSVKGRFTISRDNAKNTVYLHVNSLKPEVTAVFYCGAKYYIGFWLRDYYYWGQCTQVTVSS,high polyreactivity
19,QVQLVESGGGLVQAGGSLRLSCAASGFIFTWYTMGWYRQAPGKERELVAAITSGGNTNYADSVKGRFTISRDNAKNTVYLQMNSLKPEDTAVYYCARGYLASRLKFAKYDYWGQGTQVTVSS,high polyreactivity
20,QVQLVESGGGLVQAGGSLRLSCAASGFIFTYNDMGWYRQAPGKERELVASITWDGGRTYYADAVKGRCTISRDNAKNTVYLQMISLKPEDTADYYCAKRLGGSPIQARGDYWGQGTQVTVSS,low polyreactivity
21,QVQLVESGGGLVQAGGSLRLSCAASGFIFVAYAMGWSRQAPGKERELVAAITSSGGRTYYADSVKGRFTISRDNAKNTVYLQMNSLKPEDTAVYYCAARVYRSAKGYNYWGQGTQVTVSS,high polyreactivity
22,QVQLVESGGGLVQAGGSLRLSCAASGFIFVDYAMGWYRQAPGTERELVAAITSSGDRTYYADSVKGRFTISRDNAKNTVYLQMNSLKPEDTAVYYCNADWSTAWYTSYDYWGQGTQVTVSS,low polyreactivity

row,Sequence,polyreactivity (PSR sort gate)
1,QVQLVESGGGLVQAGGSLRLSCAASGFIFVFNAMGWYRQAPGKERELVAAITWSAGSTYYADSVKGRFTISRDTAKKTVDLQKNSLKPEDTAVYYCAADNWPWPEKPDKSILYDYWGQGTQVTVSS,low polyreactivity
2,QVQLVESGGGLVQAGGSLRLSCAASGFIFVFYDMGWYRQAPGKERELVAGITRNDGSTYYADSVKGRFKISRDNAKNTVYLQMNSLKPEDTAVYYCAAESAGSYLDYYWAYGYWGQGTQVTVSS,low polyreactivity
3,QVQLVESGGGLVQAGGSLRLSCAASGFIFVKNAMGWYRQAPGKERELVATINCGSSTTYADSVKGRFTISRDNAKNTVYLQMNSLKPEDTAVYYCNADDVENWTEYDYWGQGTQVTVSS,low polyreactivity
4,QVQLVESGGGLVQAGGSLRLSCAASGFIFVLNVMGWYRQAPGKERELVAAITWRGTSTYYADSVKGRFTISRDNAKNTVYLQMNSLKPEDTAVYYCAVKGFSTRSYREFDYWGQGTQVTVSS,low polyreactivity
5,QVQLVESGGGLVQAGGSLRLSCAASGFIFVLYAMGWYRQAPRKERELVAAISRGGSSTYYADSVKGRFTISRDNAKNTVYLQMNSLKPEATAVYYCAARIRNWPAMDYWGQGTQVTVSS,high polyreactivity
6,QVQLVESGGGLVQAGGSLRLSCAASGFIFVNNVMGWYRQAPGKERELVAAISRRGGSTYYADSVKGRFTISRDNAKNTVYLQMNSLKPEDTAVYYCARRGPDFSWKYDYWGQGTQVTVSS,high polyreactivity
7,QVQLVESGGGLVQAGGSLRLSCAASGFIFVVYAMGWYRQAPGKERELVATISSGGGTYYADSVKGRFTISRDNAKNTVYLQMNSLKPEDTAVYYCAARRRRLYHFGGNNYWGQGTQVTVSS,high polyreactivity
8,QVQLVESGGGLVQAGGSLRLSCAASGFIFVVYAMGWYRQAPGTERDLVATISSGGGTYYADSVKGRFTISLDNAKNTVYLQMNSLKPEDTAVYYCAARRRRLYHFGGNNYCGQGTQVTVSS,high polyreactivity
9,QVQLVESGGGLVQAGGSLRLSCAASGFIFVWNAMGWYRQAPGKERELVANIRDGGITYADSVKGRFTITRDNAKNTVYLQMNSLKPEDTAVYYCARTNFYRSYEPGGRFYNYDYWGQGTQVTVSS,low polyreactivity
10,QVQLVESGGGLVQAGGSLRLSCAASGFIFVYGNVMGWYRQAPGKERELVASITSDGGSTNYADSVKGRFTISRDNAKNTVYLQMNSLKPEDTAVYYCNADVPRGFGGEYDYWGQGTQVTVSS,low polyreactivity
11,QVQLVESGGGLVQAGGSLRLSCAASGFIFVYYAMGWYRQAPGKERELVAAISGHGGRTYYADSVKGRFTISRDNAKNTVYLQLNSLKPEDTAVYYCAALLYWRGYGYNYWGQGTQVTVSS,high polyreactivity
12,QVQLVESGGGLVQAGGSLRLSCAASGFIFWGNAMGWYRQAPGKERELVAAINYSGGRTYYSDSVKGRFTISRDNAKNTVYLQMNSLKPEDTAVYYCAATGPVNRASYDYWGQGTQVTVSS,high polyreactivity
13,QVQLVESGGGLVQAGGSLRLSCAASGFIFWGNAMGWYRQAPGKERELVAAITYSGDRTYYADSVKGRFTISRDNAKNTVYLQMNSLKPEDTAVYYCNADLALRSRYGEYDYWGQGTQVTVSS,high polyreactivity
14,QVQLVESGGGLVQAGGSLRLSCAASGFIFWKNAMGWYRQAPGKERELVAAISWSGGRTYYADSVKGRFTISRDNAKNTFYLQINSLKPEETAVYYCNAAGRYKPGAPYDYWGQGTQVTVSS,low polyreactivity
15,QVQLVESGGGLVQAGGSLRLSCAASGFIFWLYAMGRYRQAPGKERELVAAISNGGSTNYADSVKGRFTISRDNAKNTVYLQMNSLKPEDTAVYYCAAKFPRRFYWYDYWGQGTQVTVSS,high polyreactivity
16,QVQLVESGGGLVQAGGSLRLSCAASGFIFWQYTMGWYRQAPGKERELVAAITWRGTRTYADSVKGRFTISRDNAKNTVYLQMNSLKPEDTAVYYCAAREYYHGPDGGYYGYDYWGQGTQVTVSS,high polyreactivity
17,QVQLVESGGGLVQAGGSLRLSCAASGFIFWRYAMGWYRQAPGKERELVASITSTGGSTYYADSVKGRFTISRDNAKNTVYLQMNSLKPEDTAVYYCAADTFVWADWSWHYYWGQGTQVTVSS,high polyreactivity
18,QVQLVESGGGLVQAGGSLRLSCAASGFIFWYNAMGWYRQAPGKERELVATISVASTYADSVKGRFTISRDNAKNTVYLQMNSLKPEDTAVYYCAADWAGWEGYRMDYWGQGTQVTVSS,low polyreactivity
19,QVQLVESGGGLVQAGGSLRLSCAASGFIFWYYAMGWYRQAPGKERELVAGITSGGSTNYADSVKGRFTISRDNAKNSVYLQMNSLKPEDTAVYYCAAAPYGGFGRGYDYWGQGTQVTVSS,high polyreactivity
20,QVQLVESGGGLVQAGGSLRLSCAASGFIFWYYAMGWYRQAPGKERELVARITRIGGRTYYADSVKGRFTISRDNAKNTVYLQMNSLKPEDTAVYYCAKDVDKYRYDYWGQGTQVTVSS,high polyreactivity
21,QVQLVESGGGLVQAGGSLRLSCAASGFIFYAYAMGWYRQAPGKERELVAAITGSGGRTYYADSVKGRFTISRDNAKNTVYLQMNSLKPEDTAVYYCAAYYTSGGSRTYDYWGQGTQVTVSS,high polyreactivity
